Measured values from patent US20170037440A1 (MEDIZINISCHE HOCHSCHULE HANNOVER, published 2017).

Molecular target: the molecule itself
Assay: analytical size exclusion chromatography, self-association

B1: Δ69-CsaBco-His6 (enzyme)
chain: MLIPINFFNFEYIVKKLNNQNAIGVYILPSNLTLKPALCILESHKEDFLNKFLLTISSENLKLQYKFNGQIKNPKSVNEIWTDLFSIAHVDMKLSTDRTLSSSISQFWFRLEFCKEDKDFILFPTANRYSRKLWKHSIKNNQLFKEGIRNYSEISSLPYEEDHNFDIDLVFTWVNSEDKNWQELYKKYKPDFNSDATSTSRFLSRDELKFALRSWEMNGSFIRKIFIVSNCAPPAWLDLNNPKIQWVYHEEIMPQSALPTFSSHAIETSLHHIPGISNYFIYSNDDFLLTKPLNKDNFFYSNGIAKLRLEAWGNVNGECTEGEPDYLNGARNANTLLEKEFKKFTTKLHTHSPQSMRTDILFEMEKKYPEEFNRTLHNKFRSLDDIAVTGYLYHHYALLSGRALQSSDKTELVQQNHDFKKKLNNVVTLTKERNFDKLPLSVCINDGADSHLNEEWNVQVIKFLETLFPLPSSFEKLEHHHHHH
notes: also called ΔN69-CsaB; dN69-CsaB
- binding result: binds
